Source: patent US20190375846A1 (ULTRAHUMAN ONE, published 2019)

How the values were obtained:
[1] = target: T1, cynomolgus monkey GITR at the cell surface (cynomolgus monkey); assay: cell-based or functional assay
[2] = target: T2, human GITR at the cell surface (human, UniProt Q9Y5U5 26-241); assay: cell-based or functional assay
T2 sequence (looked up): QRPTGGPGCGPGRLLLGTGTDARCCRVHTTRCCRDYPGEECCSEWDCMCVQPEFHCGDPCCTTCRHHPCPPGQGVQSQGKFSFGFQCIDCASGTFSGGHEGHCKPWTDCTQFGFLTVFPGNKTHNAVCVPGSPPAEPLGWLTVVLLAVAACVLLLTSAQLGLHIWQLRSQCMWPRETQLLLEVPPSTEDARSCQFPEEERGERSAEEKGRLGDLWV

[3] = target: T1, cynomolgus monkey GITR at the cell …; assay: flow cytometry, cyno GITR-transfected murine blastoma cells, 10,000-13.7 ng/ml
Description: Concentration-dependent binding to GITR at the cell surface was analysed using flow cytometry.

h4-1BB-Fc = target: T3, h4-1BB-Fc; assay: direct ELISA on coated protein, IgG at 10 µg/ml, OD 450 nm
T3 construct: Member of the panel m8; not shown: Fc part and any linker
Description: (§1) Off-target homologue binding risk for mVH/mVL (FIG. 8A), VH3/VL2 (FIG. 8B) and lead engineered IgG clones G-G10 (FIG. 8C), I-C2 (FIG. 8D) and D-A6 (FIG. 8E) was examined by direct ELISA on GITR-Fc orthologs and a panel of 13 human TNFRSF and immunoglobulin superfamily proteins (as labelled on each X-axis). Binding to human, cyno and murine GITR-Fcs (h/c/mGITR-Fc) was performed at an IgG concentration of 1 μg/ml. Binding to all other proteins was performed at an IgG concentration of 10 μg/ml.
(§2) Anti-GITR antibodies were tested for polyreactivity by ELISA. Purified, recombinant, target and non-target antigens were coated in 96-well Nunc maxisorp plates at 100 ng per well in carbonate buffer, at 4° C. overnight. Plates were then washed 3× with PBS, blocked with 1% BSA in PBS, then washed 3× with PBS-Tween20. A dilution series of primary antibodies was then applied, plates were washed 3× with PBS-Tween20 followed by application of goat anti-human kappa chain-HRP 1:4,000 secondary antibody. Wells were then washed 3× with PBS-Tween20 and 2× with PBS, 100 μl TMB peroxidase substrate was added per well, the was reaction stopped by adding 100 μl 2M H₂SO₄ and absorbances were read at 450 nm. Anti-GITR antibodies were also tested for binding specificity by flow cytometry. HuT78 cells were activated by incubation with anti-CD3/anti-CD28 beads for 3 days. Naïve cells were incubated in media alone. At the end of the incubation the cells were harvested and the beads removed from the activated cells using a magnet. Cells were incubated with viability dye and then stained with anti-GITR antibodies at 4° C. […] Binding of VH1/VI1 and D-A6 IgG1 proteins were detected by subsequent incubation with a PE labelled goat anti-human IgG. Cells were fixed with 4% PFA before being stored in PBS at 4° C. overnight. Cells were analysed the next day using a BD Fortessa flow cytometer running Diva software. Analysis was performed using FlowJo software.

hBAFFR-Fc = target: T4, hBAFFR-Fc (human, UniProt Q96RJ3); assay: as above
T4 construct: recombinant Fc fusion; Member of the panel m8
Description: as §1, §2

hDR3-Fc = target: T5, hDR3-Fc (human, UniProt Q93038); assay: as above
T5 construct: recombinant Fc fusion; Member of the panel m8
T5 sequence (fusion chain, looked up): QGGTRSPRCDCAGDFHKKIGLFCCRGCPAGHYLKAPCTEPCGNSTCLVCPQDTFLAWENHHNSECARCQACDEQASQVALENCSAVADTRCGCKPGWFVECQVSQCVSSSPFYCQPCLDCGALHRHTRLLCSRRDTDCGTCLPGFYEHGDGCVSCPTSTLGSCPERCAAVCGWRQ
Description: as §1, §2

hLTBR-Fc = target: T6, hLTBR-Fc (human, UniProt P36941); assay: as above
T6 construct: recombinant Fc fusion; Member of the panel m8
Description: as §1, §2

hEpCAM-Fc = target: T7, hEpCAM-Fc (human, UniProt P16422); assay: as above
T7 construct: recombinant Fc fusion; Member of the panel m8
T7 sequence (fusion chain, looked up): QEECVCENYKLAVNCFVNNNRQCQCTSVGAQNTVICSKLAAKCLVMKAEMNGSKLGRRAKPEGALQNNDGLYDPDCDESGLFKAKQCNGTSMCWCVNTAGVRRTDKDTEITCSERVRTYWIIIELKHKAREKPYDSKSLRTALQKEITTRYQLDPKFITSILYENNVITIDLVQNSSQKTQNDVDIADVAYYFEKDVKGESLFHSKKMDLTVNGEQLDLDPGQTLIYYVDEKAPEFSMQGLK
Description: as §1, §2

hOX40-Fc = target: T8, hOX40-Fc; assay: as above
T8 construct: Member of the panel m8; not shown: Fc part and any linker
T8 chain: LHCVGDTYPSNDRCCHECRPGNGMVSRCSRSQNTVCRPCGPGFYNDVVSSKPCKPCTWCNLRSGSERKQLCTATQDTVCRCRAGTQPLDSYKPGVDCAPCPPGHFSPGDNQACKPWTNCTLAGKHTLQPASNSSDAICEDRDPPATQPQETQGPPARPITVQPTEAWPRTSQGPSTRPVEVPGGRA
Description: as §1, §2

T3 sequence (chain, as listed by the source limits assumed): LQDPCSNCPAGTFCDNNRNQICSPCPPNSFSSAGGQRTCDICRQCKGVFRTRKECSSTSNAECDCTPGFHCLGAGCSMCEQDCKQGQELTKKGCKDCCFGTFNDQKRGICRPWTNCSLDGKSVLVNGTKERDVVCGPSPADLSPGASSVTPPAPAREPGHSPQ
T4 sequence (Q96RJ3 7-71 limits assumed): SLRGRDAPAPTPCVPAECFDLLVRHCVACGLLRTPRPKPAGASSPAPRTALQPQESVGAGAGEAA
T6 sequence (P36941 28-227 limits assumed): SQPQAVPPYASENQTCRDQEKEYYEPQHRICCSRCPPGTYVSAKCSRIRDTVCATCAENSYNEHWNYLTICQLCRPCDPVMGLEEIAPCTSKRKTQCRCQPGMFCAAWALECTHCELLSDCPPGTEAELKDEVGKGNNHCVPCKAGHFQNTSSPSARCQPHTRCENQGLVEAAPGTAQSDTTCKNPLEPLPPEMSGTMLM

| Binder | EC50 of FcγRIIIa activation, Promega ADCC reporter assay, CHO-K1 target cells expressing cyno GITR [1] [nM] | potency against VH1/VL1 IgG1, ADCC reporter assay on cyno GITR CHO-K1 cells [1] [fold] | EC50 of FcγRIIIa activation, Promega ADCC reporter assay, CHO-K1 target cells expressing human GITR [2] [nM] | potency against VH1/VL1 IgG1, ADCC reporter assay on human GITR CHO-K1 cells [2] [fold] | concentration at maximum MFI [3] [ng/mL] | binding result (h4-1BB-Fc) | binding result (hBAFFR-Fc) | binding result (hDR3-Fc) | binding result (hLTBR-Fc) | binding result (hEpCAM-Fc) | binding result (hOX40-Fc) |
| --- | --- | --- | --- | --- | --- | --- | --- | --- | --- | --- | --- |
| D-A6 IgG1 (antibody, V domains shown, Human IgG1) VH: EVQLVESGGGLVQPGGSLRLSCAASGFSLSTSGYGVGWVRQAPGKGLEWLAHIWWDDDKYYVDSVKGRFTISRDNAKNSLYLQMNSLRAEDTAVYYCARTRQYFPFAYWGQGTLVTVSS VL: EIVLTQSPATLSLSPGERATLSCRASQSVGSNLAWYQQKPGQAPRLLIYSASYRYTGIPARFSGSGSGTDFTLTISSLEPEDFAVYYCQQYSTDPLTFGGGTKVEIK | 57.9 | 2 | 15.4 | 2 | ~1110 | no binding (tested: 10 µg/ml) | no binding (tested: 10 µg/ml) | no binding (tested: 10 µg/ml) | no binding (tested: 10 µg/ml) | no binding (tested: 10 µg/ml) | no binding (tested: 10 µg/ml) |
| G-G10 IgG1 (antibody, V domains shown, Human IgG1) VH: EVQLVESGGGLVQPGGSLRLSCAASGFSLSTFGYGVGWVRQAPGKGLEWLAHIWWDDDKYYVDSVKGRFTISRDNAKNSLYLQMNSLRAEDTAVYYCARTRQYFPFAYWGQGTLVTVSS VL: EIVLTQSPATLSLSPGERATLSCRASQSVGTNLAWYQQKPGQAPRLLIYYASYRYTGIPARFSGSGSGTDFTLTISSLEPEDFAVYYCQQYSNDPLTFGGGTKVEIK |  |  |  |  | ~1110 | no binding (tested: 10 µg/ml) | no binding (tested: 10 µg/ml) | no binding (tested: 10 µg/ml) | no binding (tested: 10 µg/ml) | no binding (tested: 10 µg/ml) | no binding (tested: 10 µg/ml) |
| I-C2 IgG1 (antibody, V domains shown, Human IgG1) VH: EVQLVESGGGLVQPGGSLRLSCAASGFSLSTSGYGVGWVRQAPGKGLEWLAHIWWDDDKYYVDSVKGRFTISRDNAKNSLYLQMNSLRAEDTAVYYCARTRLYFPFAYWGQGTLVTVSS VL: EIVLTQSPATLSLSPGERATLSCRASQNVGSNLAWYQQKPGQAPRLLIYSASNRYSGIPARFSGSGSGTDFTLTISSLEPEDFAVYYCQQYSTDPLTFGGGTKVEIK |  |  |  |  | ~1110 | no binding (tested: 10 µg/ml) | no binding (tested: 10 µg/ml) | no binding (tested: 10 µg/ml) | no binding (tested: 10 µg/ml) | no binding (tested: 10 µg/ml) | no binding (tested: 10 µg/ml) |
| VH3/VL2 IgG1 (antibody, V domains shown, Human IgG1; template of the mutagenesis library; also called G-VH3/VL2; VH3 family) VH: EVQLVESGGGLVQPGGSLRLSCAASGFSLSTSGMGVGWVRQAPGKGLEWLAHIWWDDDKYYVDSVKGRFTISRDNAKNSLYLQMNSLRAEDTAVYYCARTRRYFPFAYWGQGTLVTVSS VL: EIVLTQSPATLSLSPGERATLSCRASQNVGTNVAWYQQKPGQAPRLLIYSASYRYSGIPARFSGSGSGTDFTLTISSLEPEDFAVYYCQQYNTDPLTFGGGTKVEIK |  |  |  |  | ~1110 | no binding (tested: 10 µg/ml) | no binding (tested: 10 µg/ml) | no binding (tested: 10 µg/ml) | no binding (tested: 10 µg/ml) | no binding (tested: 10 µg/ml) | no binding (tested: 10 µg/ml) |
| chimeric anti-GITR IgG1 mVH/mVL (6C8 murine v-domains) (antibody, V domains shown, Full-length human IgG1, kappa; also called GITR-mVH/mVL; chimeric IgG) VH: QVTLKESGPGILKPSQTLSLTCSFSGFSLSTSGMGVGWIRQPSGKGLEWLAHIWWDDDKYYNPSLKSQLTISKDTSRNQVFLKITSVDTADAATYYCARTRRYFPFAYWGQGTLVTVSS VL: DIVMTQSQKFMSTSVGDRVSVTCKASQNVGTNVAWYQQKPGQSPKALIYSASYRYSGVPDRFTGSGSGTDFTLTINNVHSEDLAEYFCQQYNTDPLTFGAGTKLEIK |  |  |  |  | ~1110 | no binding (tested: 10 µg/ml) | no binding (tested: 10 µg/ml) | no binding (tested: 10 µg/ml) | no binding (tested: 10 µg/ml) | no binding (tested: 10 µg/ml) | no binding (tested: 10 µg/ml) |
